For 3 molecules, Kd, binding result and binding signal results are on record in paper PMC2475631.

Experiment in all cases: EMSA
For one data set, the target named is T1, Myogenin (Rattus norvegicus, UniProt P20428 1-287).
T1 sequence: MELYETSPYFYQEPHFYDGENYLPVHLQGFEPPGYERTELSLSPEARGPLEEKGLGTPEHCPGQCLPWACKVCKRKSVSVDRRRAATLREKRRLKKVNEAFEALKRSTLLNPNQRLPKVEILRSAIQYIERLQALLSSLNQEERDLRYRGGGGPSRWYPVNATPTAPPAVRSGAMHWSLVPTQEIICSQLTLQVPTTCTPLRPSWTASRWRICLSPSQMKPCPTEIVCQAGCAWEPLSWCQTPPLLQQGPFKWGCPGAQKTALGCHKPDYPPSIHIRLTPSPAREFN

Another data set addresses MyoD (Mus musculus, UniProt P10085 1-318).
For the next data set, the target named is T2, MRF4;E47 (Rattus norvegicus;Mus musculus, UniProt P19335;P15806-2 1-242;1-648, |).
T2 sequence 1: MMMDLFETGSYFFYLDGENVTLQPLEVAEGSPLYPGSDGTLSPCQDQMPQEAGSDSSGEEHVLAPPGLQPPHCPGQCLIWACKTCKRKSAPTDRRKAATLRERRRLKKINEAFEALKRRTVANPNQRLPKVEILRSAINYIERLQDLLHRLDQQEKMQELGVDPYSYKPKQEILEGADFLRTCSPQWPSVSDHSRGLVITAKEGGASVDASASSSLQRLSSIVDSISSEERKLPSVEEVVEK
T2 sequence 2: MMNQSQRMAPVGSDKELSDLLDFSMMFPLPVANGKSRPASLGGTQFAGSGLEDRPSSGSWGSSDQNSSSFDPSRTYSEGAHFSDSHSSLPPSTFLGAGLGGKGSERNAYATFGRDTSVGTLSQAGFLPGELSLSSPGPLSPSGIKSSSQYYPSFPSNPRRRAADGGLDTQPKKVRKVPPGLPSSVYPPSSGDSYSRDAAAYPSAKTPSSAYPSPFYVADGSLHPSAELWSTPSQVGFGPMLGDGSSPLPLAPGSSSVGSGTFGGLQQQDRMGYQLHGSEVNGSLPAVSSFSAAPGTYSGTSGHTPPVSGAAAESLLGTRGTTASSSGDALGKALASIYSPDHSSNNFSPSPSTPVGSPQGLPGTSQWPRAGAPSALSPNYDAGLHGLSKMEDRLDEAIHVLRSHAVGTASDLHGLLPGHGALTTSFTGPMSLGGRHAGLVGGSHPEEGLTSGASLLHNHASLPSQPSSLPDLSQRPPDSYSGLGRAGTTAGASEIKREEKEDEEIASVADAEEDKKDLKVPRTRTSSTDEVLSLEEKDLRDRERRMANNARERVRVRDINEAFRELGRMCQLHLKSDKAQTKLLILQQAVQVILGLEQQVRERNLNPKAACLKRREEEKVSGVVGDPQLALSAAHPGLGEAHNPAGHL

The target in data set [1] is T3, Myogenin;E47 (Rattus norvegicus;Mus musculus, UniProt P20428;P15806-2 1-287;1-648, |).
T3 sequence 1: T1 sequence
T3 sequence 2: T2 sequence 2

The target of data set [2] is T4, MyoD;E47 (Mus musculus;Mus musculus, UniProt P10085;P15806-2 1-318;1-648, |).
Another data set has as its target T5, MRF4 (Rattus norvegicus, UniProt P19335 1-242).
T5 sequence: T2 sequence 1

Data set [3] deals with T3, Myogenin;E47. This is another data set of the same source.
The target of data set [4] is T4, MyoD;E47. The source holds these as a separate data set.
For a further data set, the target named is T6, mut-Myogenin (Rattus norvegicus, UniProt P20428 1-287, R84K;K91R).
T6 sequence: T1 sequence with R84K, K91R

The target in the next data set is MyoD/Myogeninb chimera (Mus musculus; Rattus norvegicus basic …, UniProt P10085 1-101+P20428:74-93+122-318, internal_change).
A further data set concerns the target T7, Myogenin/MyoDb chimera (Rattus norvegicus; Mus musculus basic …, UniProt P20428 1-73+P10085:102-121+94-287, internal_change).
T7 sequence: T1 sequence with S77T, V78T, S79N, V80A, R84K, L88M, K91R

Substitutions are numbered along the chain they refer to.

B1: E-box DNA (dsDNA)
DNA 1: TCGATCCCCCAACACCTGCTGCCTGA
DNA 2: TCAGGCAGCAGGTGTTGGGGGACGA
As to B1, the Kd with Myogenin was determined as 25.4 ± 11 nM; with MyoD, 91.8 ± 1.6 nM; in the data set with MRF4;E47 it was 0.2 ± 0.1 nM; with Myogenin;E47 [1] it was 0.2 ± 0.1 nM; in the data set with MyoD;E47 [2] it was 1.7 ± 0.6 nM; in the data set with MRF4 it was 21.3 ± 11 nM.
Consider CTGAGGAGGGGCTGGAGGGACCAC (structured_DNA) [G'2 sMtCK DNA], for which the binding result with MRF4 is “binds”. The binding signal is 128 fold weaker than E-box with Myogenin;E47 [3] and 15 fold weaker than E-box with MyoD;E47 [4].
On to CATGGGGGCGGGAAGGGGCGGGGTCT (structured_DNA) [G'2 integrin DNA], for which, in the data set with mut-Myogenin, the binding result is “binds”. Further, the dissociation constant Kd with Myogenin is 30 ± 8 nM; in the data set with MyoD/Myogeninb chimera, 6 ± 3.1 nM; with MyoD, 4.4 ± 2.5 nM; with MRF4;E47, 19.5 ± 2.7 nM; in the data set with Myogenin;E47 [1], 8.5 ± 2 nM; with MyoD;E47 [2], 11.2 ± 4.3 nM. Further, the Kd with Myogenin/MyoDb chimera is 7.1 ± 1.9 nM; in the data set with MRF4 it was 5.3 ± 1.3 nM.
